Earlier results in patent publication US9737089B2, “Milk-based nutritional compositions containing lactoferrin and uses thereof” (Mead Johnson Nutrition Company, priority 2012, dated 2017).

Tested on: EPEC adhesion to HeLa cells
Details: Nascimento de Arujao et al., BMC Microbiol. 1:25 (2001)

B1: human lactoferrin: iron-binding glycoprotein, one of the major multifunctional agents present in human milk (protein, UniProt P02788 20-710, looked up)
Lactotransferrin: GRRRSVQWCAVSQPEATKCFQWQRNMRKVRGPPVSCIKRDSPIQCIQAIAENRADAVTLDGGFIYEAGLAPYKLRPVAAEVYGTERQPRTHYYAVAVVKKGGSFQLNELQGLKSCHTGLRRTAGWNVPIGTLRPFLNWTGPPEPIEAAVARFFSASCVPGADKGQFPNLCRLCAGTGENKCAFSSQEPYFSYSGAFKCLRDGAGDVAFIRESTVFEDLSDEAERDEYELLCPDNTRKPVDKFKDCHLARVPSHAVVARSVNGKEDAIWNLLRQAQEKFGKDKSPKFQLFGSPSGQKDLLFKDSAIGFSRVPPRIDSGLYLGSGYFTAIQNLRKSEEEVAARRARVVWCAVGEQELRKCNQWSGLSEGSVTCSSASTTEDCIALVLKGEADAMSLDGGYVYTAGKCGLVPVLAENYKSQQSSDPDPNCVDRPVEGYLAVAVVRRSDTSLTWNSVKGKKSCHTAVDRTAGWNIPMGLLFNQTGSCKFDEYFSQSCAPGSDPRSNLCALCIGDEQGENKCVPNSNERYYGYTGAFRCLAENAGDVAFVKDVTVLQNTDGNNNEAWAKDLKLADFALLCLDGKRKPVTEARSCHLAMAPNHAVVSRMDKVERLKQVLLHQQAKFGRNGSDCPDKFCLFQSETKNLLFNDNTECLARLHGKTTYEKYLGPQYVAGITNLKKCSTSPLLEACEFLRK
  inhibition of adhesion of EPEC to HeLa cells: can inhibit the adhesion
